Measurements published in patent publication US20100298224A1 (UNIVERSITE PARIS SUD XI, published 2010).

Target: T1, factor Xa (FXa, Kordia) (UniProt P00742 41-179; P00742 235-488, limits assumed)
T1 construct: The bovine factor Xa of the Rotachrom kit is a different reagent and is not used here
Experiment: ratio of kon for FXa inhibition against plasma AT, with pentasaccharide
Experimental: In a second time FXa residual activity is measured by adding 190 μl of S2765 (200 μM) to 10 μl of previous mixture. Initial rate of substrate hydrolysis is then plotted as the function of incubation time with inhibitor and curves are fitted with equation 1 to determine kon (gray lines). Time expressed in minute is plotted in abscissa; substrate hydrolysis rate expressed in OD/s⁻¹ is plotted in ordinate.

T1 sequence (P00742 41-179 limits assumed, form in doubt, chain 1 of 2): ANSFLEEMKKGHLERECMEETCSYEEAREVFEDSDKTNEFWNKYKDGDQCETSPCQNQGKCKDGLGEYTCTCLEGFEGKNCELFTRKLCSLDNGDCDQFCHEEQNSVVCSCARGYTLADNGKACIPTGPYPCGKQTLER
T1 sequence (P00742 235-488 limits assumed, form in doubt, chain 2 of 2): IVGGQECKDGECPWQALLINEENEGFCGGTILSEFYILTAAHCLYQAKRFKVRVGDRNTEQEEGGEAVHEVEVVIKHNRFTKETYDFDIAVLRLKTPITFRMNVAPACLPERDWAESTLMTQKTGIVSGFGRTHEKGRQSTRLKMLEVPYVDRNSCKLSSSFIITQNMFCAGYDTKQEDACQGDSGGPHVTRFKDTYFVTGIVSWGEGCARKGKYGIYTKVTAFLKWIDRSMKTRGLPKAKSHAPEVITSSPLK

fold lower kon than plasma AT: ≥ 7600 fold
B1: AT-N135Q-Pro394 (other)
chain: HGSPVDICTAKPRDIPMNPMCIYRSPEKKATEDEGSEQKIPEATNRRVWELSKANSRFATTFYQHLADSKNDNDNIFLSPLSISTAFAMTKLGACNDTLQQLMEVFKFDTISEKTSDQIHFFFAKLNCRLYRKAQKSSKLVSANRLFGDKSLTFNETYQDISELVYGAKLQPLDFKENAEQSRAAINKWVSNKTEGRITDVIPSEAINELTVLVLVNTIYFKGLWKSKFSPENTRKELFYKADGESCSASMMYQEGKFRYRRVAEGTQVLELPFKGDDITMVLILPKPEKSLAKVEKELTPEVLQEWLDELEEMMLVVHMPRFRIEDGFSLKEQLQDMGLVDLFSPEKSKLPGIVAEGRDDLYVSDAFHKAFLEVNEEGSEAAASTAVVIAGRPSLNPNRVTFKANRPFLVFIREVPLNTIIFMGRVANPCVK
notes: Recombinant double mutant antithrombin made in HEK-293 or BHK-21 cells, secreted
